These results are taken from EP4745156A1 (Beijing Vjtbio Co., Ltd., dated 2026).

This test has as its target T1, His-tagged canine IL-31 (interleukin 31) recombinant protein (canine).
T1 construct: Expressed in HEK293 cells, purified on a Ni column; unlabelled analyte in BLI; also called canine IL-31 recombinant protein; biotin-labeled canine IL-31 recombinant protein
Nature of the test: BLI (Gator), biotinylated antibody on streptavidin probe, canine IL-31 as analyte.

B1: Lokivetmab (antibody, V domains shown)
VH: EVQLVESGGDLVKPGGSLRLSCVASGFTFSNYGMSWVRQAPGKGLQWVATISYGGSYTYYPDNIKGRFTISRDNAKNTLYLQMNSLRAEDTAMYYCVRGYGYDTMDYWGQGTLVTVSS
VL: EIVMTQSPASLSLSQEEKVTITCKASQSVSFAGTGLMHWYQQKPGQAPKLLIYRASNLEAGVPSRFSGSGSGTDFSFTISSLEPEDVAVYYCQQSREYPWTFGQGTKLEIKR
As to B1, the Kd (as a rule, the free concentration of one partner at which half of the binding sites on the other are occupied at equilibrium, for simple one-to-one binding) is 19.3 nM; the koff (in general, the rate constant with which the complex falls apart) is 0.00203 s⁻¹; the kon – broadly, the second-order rate constant of association – came out at 105000 M⁻¹ s⁻¹.
